Experimental data: doi:10.1101/2020.08.27.270058
Blank lines part the entries; values can stand above or below the molecule they belong to.

Tests used:
[1] = biological target: MglB (Myxococcus xanthus) (UniProt Q1DB03); experiment: SEC
[2] = biological target: MglC (Myxococcus xanthus); experiment: SEC
[3] = biological target: MglB (Myxococcus xanthus) (UniProt Q1DB03); experiment: SAXS
[4] = biological target: MglC (Myxococcus xanthus); experiment: SAXS
[5] = biological target: MglB (Myxococcus xanthus) (UniProt Q1DB03); experiment: ITC
[6] = biological target: T1, MglB (Myxococcus xanthus), Q1DB03; experiment: SAXS; conditions: remark: other sources report otherwise
T1 chain: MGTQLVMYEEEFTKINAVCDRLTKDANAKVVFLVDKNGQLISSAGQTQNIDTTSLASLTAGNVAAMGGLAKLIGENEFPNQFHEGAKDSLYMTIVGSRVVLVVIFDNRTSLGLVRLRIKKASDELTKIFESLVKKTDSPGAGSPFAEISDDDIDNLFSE

[7] = biological target: T1, MglB (Myxococcus xanthus), Q1DB03; experiment: SEC; conditions: remark: other sources report otherwise

stoichiometry N (MglC:MglB (2:4)) [1]: 0.5
stoichiometry N [2]: 2
stoichiometry N (MglC:MglB (2:4)) [3]: 0.5
stoichiometry N [4]: 2
Kd [5]: 625 nM
dH [5]: 6.94 kcal/mol
stoichiometry N [5]: 0.5
Molecule: MglC (natural protein)

stoichiometry N [6]: 2
stoichiometry N [7]: 2
B1: MglB, Q1DB03 1-159 (natural protein)
chain: T1 chain
